Laboratory results as given in US20220380459A1 (DRAGONFLY THERAPEUTICS, published 2022).
Where a chain is given by its changes, count along the chain named. Like-named read-outs stand apart in the source and are kept apart here. One block for each binder: values may come before it.

What was measured:
Assay in all cases: SPR, Fab captured, 37C
[1] = target: T1, C domain of human CD33 (human, UniProt P20138 140-259, limits assumed)
T1 construct: recombinant C domain

[2] = target: T2, cyno CD33 extracellular domain (Cynomolgus/Rhesus (cyno))
T2 construct: soluble monomeric ECD; also called cyno CD33 ECD
Description: (§1) Kinetics and affinity of a series of Fab fragments of anti-CD33 antibodies with different CD33 variants (human CD33 ECD, cyno CD33 ECD, V-domain of human CD33, C-domain or human CD33 and selected CD33 SNPs) were assessed by surface plasmon resonance using Biacore 8K instrument (GE Healthcare). Anti-Fab antibody was immobilized on a CMS chip using standard amine coupling chemistry. CD33 FABs were captured on the anti-Fab chip at a density of ˜100 RU. Solutions containing different concentrations of soluble monomeric CD33 or its domains were injected over the captured FABs and control surfaces at 30 μl/min at 37° C. Surfaces were regenerated between cycles by quick injection of 10 mM glycine, pH 1.8. To obtain kinetic rate constants double-referenced data were fit to a 1:1 interaction model using Biacore 8K Evaluation software (GE Healthcare). The equilibrium binding constant KD was determined by the ratio of binding rate constants kd/kₐ.
(§2) Affinity of 29 Fab fragments binding to human and cyno CD33 ECD were assayed by Biacore analysis.

[3] = target: T3, human CD33 extracellular domain (human, UniProt P20138 18-259)
T3 construct: soluble monomeric ECD; also called human CD33 ECD; hCD33
Description: as §1, §2

[4] = target: T3, human CD33 extracellular domain; remark: listed apart in the source
[5] = target: T4, V domain of human CD33 (human, UniProt P20138 18-139, limits assumed)
T4 construct: recombinant, fully glycosylated V domain; also called Human CD33 V domain

[6] = target: T5, deglycosylated V domain of human CD33 (human, UniProt P20138 18-139, limits assumed, N-glycans removed by PNGase)
T5 construct: V domain deglycosylated by PNGase before testing; also called deglycosylated V CD33

[7] = target: T3, human CD33 extracellular domain; remark: listed apart in the source
[8] = target: T3, human CD33 extracellular domain; remark: listed apart in the source
[9] = target: T4, V domain of human CD33; remark: listed apart in the source

B1: ADI-11826 Fab (Fab, V domains shown)
VH: EVQLVESGGGLVQPGGSLRLSCAASGFTFPGYWMSWVRQAPGKGLEWVANINQDGSEVYYVDSVKGRFTISRDNAKNSLYLQMNSLRAEDTAVYYCAREANYYGNVGDDYWGQGTLVTVSS
VL: DIQMTQSPSSLSASVGDRVTITCRASQSIYNYLNWYQQKPGKAPKLLIYAASSTQSGVPSRFSGSGSGTDFTLTISSLQPEDFATYYCQQAFHVPITFGGGTKVEIK
notes: Fab fragment; also called Ab26
- binding result [1]: no binding
- binding result [2]: no binding (tested: 100 nM)
- Kd [3]: 2.63 nM
- koff [3]: 0.00463 s⁻¹
- kon [3]: 1.76e+06 M⁻¹ s⁻¹
- Kd [4]: 2.63 nM
- koff [4]: 0.00463 s⁻¹
- kon [4]: 1.76e+06 M⁻¹ s⁻¹
- Kd [5]: 4.38 nM
- koff [5]: 0.0225 s⁻¹
- kon [5]: 5.12e+06 M⁻¹ s⁻¹
- Kd [6]: 3.69 nM
- koff [6]: 0.0198 s⁻¹
- kon [6]: 5.37e+06 M⁻¹ s⁻¹
- Kd [7]: 2.63 nM
- koff [7]: 0.00463 s⁻¹
- Kd [8]: 2.63 nM
- koff [8]: 0.00463 s⁻¹
- kon [8]: 1.76e+06 M⁻¹ s⁻¹
- Kd [9]: 4.38 nM
- koff [9]: 0.0225 s⁻¹
- kon [9]: 5.12e+06 M⁻¹ s⁻¹

B2: ADI-11828 Fab (Fab, V domains shown)
VH: EVQLVESGGGLVQPGGSLRLSCAASGFTFSSYWMSWVRQAPGKGLEWVANINQDGSEVYYVDSVKGRFTISRDNAKNSLYLQMNSLRAEDTAVYYCARDVGPGIAYQGHFDYWGQGTLVTVSS
VL: B1 VL with N31Y, T54R, A91V, F92Y, H93D, V94T, I96L
notes: Fab fragment; also called Ab27
- binding result [1]: no binding
- Kd [2]: 53.5 nM
- koff [2]: 0.0548 s⁻¹
- kon [2]: 1.03e+06 M⁻¹ s⁻¹
- Kd [3]: 2.67 nM
- koff [3]: 0.00351 s⁻¹
- kon [3]: 1.32e+06 M⁻¹ s⁻¹
- Kd [4]: 2.67 nM
- koff [4]: 0.00351 s⁻¹
- kon [4]: 1.32e+06 M⁻¹ s⁻¹
- Kd [5]: 6.3 nM
- koff [5]: 0.0213 s⁻¹
- kon [5]: 3.37e+06 M⁻¹ s⁻¹
- Kd [6]: 4.87 nM
- koff [6]: 0.0189 s⁻¹
- kon [6]: 3.59e+06 M⁻¹ s⁻¹
- Kd [7]: 2.67 nM
- koff [7]: 0.00351 s⁻¹
- Kd [8]: 2.67 nM
- koff [8]: 0.00351 s⁻¹
- kon [8]: 1.32e+06 M⁻¹ s⁻¹
- Kd [9]: 6.3 nM
- koff [9]: 0.0213 s⁻¹
- kon [9]: 3.37e+06 M⁻¹ s⁻¹

B3: ADI-11825 Fab (Fab, V domains shown)
VH: B1 VH with P30G, V58E
VL: B1 VL with S53N, T54L, Q55H
notes: Fab fragment; also called Ab25
- binding result [1]: no binding
- binding result [2]: no binding (tested: 100 nM)
- Kd [3]: 1.78 nM
- koff [3]: 0.0038 s⁻¹
- kon [3]: 2.13e+06 M⁻¹ s⁻¹
- Kd [4]: 1.78 nM
- koff [4]: 0.0038 s⁻¹
- kon [4]: 2.13e+06 M⁻¹ s⁻¹
- Kd [5]: 3.95 nM
- koff [5]: 0.0195 s⁻¹
- kon [5]: 4.93e+06 M⁻¹ s⁻¹
- Kd [6]: 3.11 nM
- koff [6]: 0.018 s⁻¹
- kon [6]: 5.78e+06 M⁻¹ s⁻¹
- Kd [7]: 1.78 nM
- koff [7]: 0.0038 s⁻¹
- Kd [8]: 1.78 nM
- koff [8]: 0.0038 s⁻¹
- kon [8]: 2.13e+06 M⁻¹ s⁻¹
- Kd [9]: 3.95 nM
- koff [9]: 0.0195 s⁻¹
- kon [9]: 4.93e+06 M⁻¹ s⁻¹

Now from value to binder:

- binding result [1]: no binding
- binding result [2]: no binding (tested: 100 nM)
- Kd [3]: 42.2 nM
- koff [3]: 0.0269 s⁻¹
- kon [3]: 637000 M⁻¹ s⁻¹
- Kd [4]: 42.2 nM
- koff [4]: 0.0269 s⁻¹
- kon [4]: 637000 M⁻¹ s⁻¹
- Kd [5]: 206 nM
- koff [5]: 0.327 s⁻¹
- kon [5]: 1.59e+06 M⁻¹ s⁻¹
- Kd [6]: 133 nM
- koff [6]: 0.225 s⁻¹
- kon [6]: 1.7e+06 M⁻¹ s⁻¹
- Kd [7]: 42.2 nM
- koff [7]: 0.0269 s⁻¹
- Kd [8]: 42.2 nM
- koff [8]: 0.0269 s⁻¹
- kon [8]: 637000 M⁻¹ s⁻¹
- Kd [9]: 206 nM
- koff [9]: 0.327 s⁻¹
- kon [9]: 1.59e+06 M⁻¹ s⁻¹
B4: ADI-10160 Fab (Fab, V domains shown)
VH: B1 VH with P30S, G31S, V58K
VL: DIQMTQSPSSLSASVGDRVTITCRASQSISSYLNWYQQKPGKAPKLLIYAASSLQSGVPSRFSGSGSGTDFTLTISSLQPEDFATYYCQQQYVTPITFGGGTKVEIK
notes: Fab fragment; also called Ab15

- binding result [1]: no binding
- binding result [2]: no binding (tested: 100 nM)
- Kd [3]: 31.5 nM
- koff [3]: 0.0101 s⁻¹
- kon [3]: 319000 M⁻¹ s⁻¹
- Kd [4]: 31.5 nM
- koff [4]: 0.0101 s⁻¹
- kon [4]: 319000 M⁻¹ s⁻¹
- Kd [5]: 286 nM
- koff [5]: 0.37 s⁻¹
- kon [5]: 1.29e+06 M⁻¹ s⁻¹
- Kd [6]: 143 nM
- koff [6]: 0.116 s⁻¹
- kon [6]: 811000 M⁻¹ s⁻¹
- Kd [7]: 31.5 nM
- koff [7]: 0.0101 s⁻¹
- Kd [8]: 31.5 nM
- koff [8]: 0.0101 s⁻¹
- kon [8]: 319000 M⁻¹ s⁻¹
- Kd [9]: 286 nM
- koff [9]: 0.37 s⁻¹
- kon [9]: 1.29e+06 M⁻¹ s⁻¹
B5: ADI-10164 Fab (Fab, V domains shown)
VH: QVQLQESGPGLVKPSETLSLTCAVSGYSISSGYYWGWIRQPPGKGLEWIGSIYHSGSTNYNPSLKSRVTISVDTSKNQFSLKLSSVTAADTAVYYCARLPPWFGFSYFDLWGRGTLVTVSS
VL: EIVLTQSPATLSLSPGERATLSCRASQSVSSYLAWYQQKPGQAPRLLIYDASNRATGIPARFSGSGSGTDFTLTISSLEPEDFAVYYCQQVDNYPPTFGGGTKVEIK
notes: Fab fragment; also called Ab18
